T1: human BCMA on cells (L-BCMA+, K562-BCMA+, A549-BCMA-1D6) (human, UniProt Q02223 1-184)
T1 construct: whole, on cells; the cell line of each assay is named under assay; also called L-BCMA-1E6-A4; K562-BCMA-B22D8
T1 sequence (looked up): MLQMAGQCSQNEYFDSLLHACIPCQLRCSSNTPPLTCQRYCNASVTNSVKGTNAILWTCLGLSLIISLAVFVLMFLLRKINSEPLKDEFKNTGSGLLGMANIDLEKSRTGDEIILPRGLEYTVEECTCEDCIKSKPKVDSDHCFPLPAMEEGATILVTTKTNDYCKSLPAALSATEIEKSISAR

B1: chimeric antibody of hybridoma 113B3F12 (antibody, human IgG1, kappa, V domains shown)
VH: EVQLQQSGPVLVKPGASVKMSCKASGYTFTDYYMNWVKQSHGKSLEWIGVINPYNGGTDYNQKFKGKATLTVDKSSSTAYMELNSLTSEDSAVYYCARRRESYGTSYQGAYFDSWGQGTTLTVSS
VL: DIQMTQTTSSLSASLGDRVTISCRASQDISNYLNWYQQKPDGTVKLLIYYTSRLHSGVPSRFSGSGSGTDYSLSISDLEQEDIATYFCQQVITLPWTFGGGTKLEIKR
notes: IgG1,κ chimeric antibody, HEK 293T supernatant
B2: hBCMA-ECD-Fc (fusion protein of human BCMA extracellular domain Met1-Ala54 and human IgG1 Fc fragment Pro100-Lys330) (Fc fusion, UniProt Q02223 1-54, looked up)
chain: MLQMAGQCSQNEYFDSLLHACIPCQLRCSSNTPPLTCQRYCNASVTNSVKGTNA
notes: range 1-54; also the immunogen; also called soluble extracellular domain of human BCMA; not shown: human IgG1 Fc fragment, Pro100-Lys330
B3: BCMA of K562-BCMA+ medium supernatant (soluble BCMA) (receptor, UniProt Q02223 1-54, looked up)
chain: B2 chain
B4: chimeric antibody 107A9A4D2VH/VL-1 (antibody, human IgG1, kappa, V domains shown)
VH: EVQLQQSGPVLVKPGASVKMSCKASGYTFTDLYMNWLKQSHGKRLEWIGVINPYNGGTSYNQKFKGKATLTVDKSSSTAYMDLNSLTSEDSAVYYCARGDSIYVMDYWGQGTSFTVSS
VL: ENVLTQSPAIMSASPGEKVTMTCSASSSVSYMHWYQQKSSTSPKLWIYDTSKLSSGVPGRFSGSGSGKSYSLTISSMEAEDVATYYCFQGSGYPLFTFGSGTKLEIKR
notes: IgG1,κ chimeric antibody, HEK 293T supernatant; also called 107A9A4D2VH paired with 107A9A4D2VL-1

Legend:
[1] = target: T1, human BCMA on cells (L-BCMA+, …); test: FACS, chimeric antibody supernatant, L-BCMA+ cells
[2] = target: B2; test: ELISA, chimeric antibody supernatant
[3] = target: T2, hybridoma antibody 6G10-1D7 (mAb001); test: flow cytometry competition: hBCMA-ECD-Fc against K562-BCMA+ cells for mAb001 at 1 µg/ml
T2 construct: tested as supernatant and purified; also called CP01
T2 sequence (VH, as listed by the source, chain 1 of 2): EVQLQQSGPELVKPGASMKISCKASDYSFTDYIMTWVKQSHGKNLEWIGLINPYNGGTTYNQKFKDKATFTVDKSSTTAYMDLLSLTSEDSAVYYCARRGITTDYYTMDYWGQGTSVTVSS
T2 sequence (VL, as listed by the source, chain 2 of 2): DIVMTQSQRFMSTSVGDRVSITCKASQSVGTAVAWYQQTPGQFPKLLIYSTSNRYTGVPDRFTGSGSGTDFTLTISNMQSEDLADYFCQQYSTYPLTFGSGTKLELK

[4] = target: T2, hybridoma antibody 6G10-1D7 (mAb001); test: flow cytometry competition: BCMA of K562-BCMA+ supernatant against K562-BCMA+ cells for mAb001 at 1 µg/ml

Binder | FACS (MFI) [1] [MFI] | ELISA (OD450 nm) [2] [OD450] | other results
B1 | 37.5 | 0.09 | 
B2 |  |  | IC50 [3]: 0.731 µg/mL; molar ratio at IC50 [3]: 1.7 molar ratio (:1)
B3 |  |  | IC50 [4]: 0.466 µg/mL; molar ratio at IC50 [4]: 10.4 molar ratio (:1)
B4 | 42.5 | 0.13 | 

Source: patent US20230181640A1 (SHANGHAI ABELZETA, published 2023)
